Experiment [1] has as its target human OX40 extracellular domain fused to the Fc portion of human IgG1 (hOX40:hFc) (human). Briefly: ELISA, OX40L-FLAG binding to coated hOX40:hFc. For orientation: In an ELISA, binding on a coated surface is turned into a signal by an enzyme label.
Experiment [2] has as its target human OX40 (CD134), full length, expressed on cells (activated human T cells; EL4-OX40 and CHO-OX40 transfectants) (human) (UniProt P43489). Briefly: flow cytometry titration on activated human T cells. (A flow cytometer gives signals particle by particle.)
Experiment [3] concerns the target human OX40 extracellular domain fused to the Fc portion of human IgG1 (hOX40:hFc) (human). The experiment is described as follows: ELISA, blocking of OX40L-FLAG binding to coated hOX40:hFc.
Experiment [4] has as its target human OX40 (CD134), full length, expressed on cells (activated human T cells; EL4-OX40 and CHO-OX40 transfectants) (human) (UniProt P43489). Briefly: flow cytometry, OX40L-FLAG binding to activated human T cells.
The target is the same in experiment [5]. Briefly: flow cytometry, blocking of OX40L-FLAG binding to activated human T cells.
Experiment [6] concerns the target recombinant human OX40:mFc fusion protein (Alexis Corporation) (human) (UniProt P43489). The experiment is described as follows: cross-blocking ELISA, hOX40:mFc pre-incubated with L106; competitor: coated 112V8.
The target is the same in experiment [7]. The experiment is described as follows: cross-blocking ELISA, hOX40:mFc pre-incubated with L106; competitor: coated 112Y131.

This is an account of results in patent publication US20170081417A1.

Sequence of human OX40 (CD134), full length, expressed on cells (activated human T cells; EL4-OX40 and CHO-OX40 transfectants) (human) (P43489 29-277 limits assumed): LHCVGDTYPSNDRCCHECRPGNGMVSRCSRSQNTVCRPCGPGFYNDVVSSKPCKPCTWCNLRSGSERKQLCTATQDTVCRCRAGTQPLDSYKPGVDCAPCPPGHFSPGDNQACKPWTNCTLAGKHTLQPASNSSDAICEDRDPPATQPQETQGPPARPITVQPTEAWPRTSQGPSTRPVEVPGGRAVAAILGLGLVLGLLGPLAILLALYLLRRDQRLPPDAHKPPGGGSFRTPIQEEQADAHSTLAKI
Sequence of human OX40 extracellular domain fused to the Fc portion of human IgG1 (hOX40:hFc) (human) (chain, as listed by the source limits assumed): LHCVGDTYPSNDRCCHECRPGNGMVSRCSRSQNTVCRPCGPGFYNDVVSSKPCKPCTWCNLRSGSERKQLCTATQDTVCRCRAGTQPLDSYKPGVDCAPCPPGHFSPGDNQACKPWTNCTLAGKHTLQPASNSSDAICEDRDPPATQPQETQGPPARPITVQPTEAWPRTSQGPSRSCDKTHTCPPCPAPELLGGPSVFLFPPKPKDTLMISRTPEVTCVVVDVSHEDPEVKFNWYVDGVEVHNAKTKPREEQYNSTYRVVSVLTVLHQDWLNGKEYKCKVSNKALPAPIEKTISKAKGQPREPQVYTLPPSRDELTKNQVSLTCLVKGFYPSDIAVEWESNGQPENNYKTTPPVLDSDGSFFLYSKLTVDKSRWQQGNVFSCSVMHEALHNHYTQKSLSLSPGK
Sequence of recombinant human OX40:mFc fusion protein (Alexis Corporation) (human) (P43489 29-214): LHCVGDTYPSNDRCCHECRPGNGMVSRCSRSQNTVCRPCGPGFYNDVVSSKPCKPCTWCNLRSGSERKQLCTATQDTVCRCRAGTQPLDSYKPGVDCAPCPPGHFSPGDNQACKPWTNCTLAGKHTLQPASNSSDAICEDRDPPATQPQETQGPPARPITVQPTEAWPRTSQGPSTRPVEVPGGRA

As for “mouse anti-human OX40 antibody L106 (Becton Dickinson, catalog number 340420)”, the percent inhibition of OX40L binding in experiment [1] turned out to be 95%; in experiment [4], 60%. In addition, in experiment [2], the BMAX Geo Mean (geometric mean fluorescence) worked out at 52. In addition, the Kd in experiment [2] was found to be 1 nM. In addition, the concentration for half-maximal inhibition (IC50) in experiment [3] came out at 0.982 µg/mL; in experiment [5] it was 60.9 µg/mL. Further, the percent reduction of binding in experiment [6] and in experiment [7] was 10% in each case.

The Kd is the constant that tells how readily two partners part at equilibrium. Low values mean a tighter complex, high ones a looser complex. Usually IC50 stands for the concentration that inhibits the measured activity by half. Higher therefore signals weaker potency.
